For 167 variants, self-cleavage results are on record in the RNAGym collection of RNA variant scans (doi:10.7554/elife.80360).

The chains are these.
B1: Hammerhead Ribozyme (parent)
chain: ACCGGAUGUGCUUUCCGGUCUGAUGAGUCCGUGAGGACGAAACAG

Variants of B1 are the subject of the series. Description: self-cleavage, relative activity (ratio to wild type); higher = more cleavage; co-transcriptional.
Regarding U9A A34G, the self-cleavage is 0.751.
For U9A A34U the value was 0.941.
Then U9A A34C, with 1.2.
As for G8U C38A, the self-cleavage is 0.774.
Turning to G8U C38U, the self-cleavage amounted to 0.893.
For G8U C38G the value was 0.887.
Then G8C C15U, with 1.26; and G8C C15A, with 0.837; and G8C C15G, with 0.469.
Then G8A U19C, with 0.489; and G8A U19A, with 0.402.
Regarding G8A U19G, the self-cleavage worked out at 0.448.
Then G8U U21G, with 0.571; and G8U U21A, with 0.782.
For G8U U21C the value was 0.819; for G8U G33A, 0.938; for G8U G33C, 0.57.
For G8U G33U the value was 1.07; for G8C G35C, 0.726.
Consider G8C G35A, for which the self-cleavage amounted to 0.769.
For G8C G35U, the self-cleavage was 0.775.
As for G8C G31C, the self-cleavage turned out to be 0.822.
For G8C G31U the value was 0.679.
Then G8C G31A, with 1.06.
Then G8C G10U, with 1.25.
As for G8C G10A, the self-cleavage was 1.47.
Then G8C G10C, with 1.47; and G8C U12G, with 1.43.
For G8C U12C the value was 1.11; for G8C U12A, 1.01; for G8U G39U, 0.344.
Then G8U G39C, with 0.417; and G8U G39A, with 0.395; and G8A G45C, with 0.512.
As to G8A G45U, the self-cleavage stood at 0.859.
With G8A G45A, the self-cleavage is 0.704.
For G8U G45C the value was 0.768; for G8U G45U, 0.826; for G8U G45A, 0.744.
Take G8C A44U: the self-cleavage was determined as 0.56.
For G8C A44C the value was 0.608; for G8C A44G, 1.47; for G8C U21A, 0.784.
Take G8C U21C: the self-cleavage is 0.611.
Then G8C U21G, with 0.432.
G8C G18A: the self-cleavage is 0.509.
For G8C G18U the value was 0.611; for G8C G18C, 0.564.
Then G8U U9G, with 0.751; and G8U U9C, with 1; and G8U U9A, with 1.11.
As to G8A C16G, the self-cleavage turned out to be 1.03.
For G8A C16A the value was 1.2; for G8A C16U, 1.13.
With G8U A44G, the self-cleavage was determined as 1.37.
Then G8U A44U, with 0.688.
For the variant G8U A44C, the self-cleavage is 0.59.
Consider G8A U12G, for which the self-cleavage is 1.25.
Then G8A U12A, with 1.09.
Turning to G8A U12C, the self-cleavage came out at 0.897.
With G8C U19A, the self-cleavage is 0.295.
Then G8C U19C, with 0.544; and G8C U19G, with 0.428; and U9A A37G, with 1.
Then U9A A37U, with 0.593.
As to U9A A37C, the self-cleavage is 1.02.
Consider G8C C20U, for which the self-cleavage came to 0.433.
Then G8C C20A, with 0.461; and G8C C20G, with 0.288; and G8C G17A, with 0.663.
Then G8C G17C, with 0.397; and G8C G17U, with 0.752.
For G8U G36C the value was 0.885.
For the variant G8U G36U, the self-cleavage is 0.495.
For G8U G36A the value was 0.658; for G8A G36U, 0.5.
Then G8A G36A, with 0.424.
For G8A G36C the value was 0.508; for G8U U19C, 0.649.
Consider G8U U19G, for which the self-cleavage came out at 0.369.
Turning to G8U U19A, the self-cleavage was 0.398.
For G8U G17U the value was 0.964; for G8U G17A, 0.652.
For G8U G17C the value was 0.509; for G8C C16G, 0.511; for G8C C16A, 0.446.
Then G8C C16U, with 1.32; and G8A U32G, with 1.09.
Consider G8A U32C, for which the self-cleavage stood at 1.02.
For G8A U32A the value was 1.14; for G8C G45A, 0.536.
For G8C G45U the value was 0.546; for G8C G45C, 0.717.
Then G8U U32C, with 0.877; and G8U U32A, with 0.996; and G8U U32G, with 0.859.
Turning to G8C U24G, the self-cleavage was 1.05.
For the variant G8C U24A, the self-cleavage was 1.17.
Then G8C U24C, with 0.769.
Take G8A G33U: the self-cleavage is 1.13.
For G8A G33C the value was 0.949.
Then G8A G33A, with 0.9; and G8A G17U, with 0.837; and G8A G17C, with 0.493.
Then G8A G17A, with 0.539; and G8U G22C, with 0.354; and G8U G22U, with 0.348.
For G8U G22A, the self-cleavage came to 0.37.
Then G8U U13A, with 1.1.
Then G8U U13G, with 1.05; and G8U U13C, with 1.34.
Then G8A U14C, with 0.975.
Regarding G8A U14A, the self-cleavage worked out at 0.866.
For G8A U14G the value was 0.988; for G8C G39A, 0.347; for G8C G39C, 0.407.
For G8C G39U the value was 0.441.
For U9A A23G the value was 0.324; for U9A A23C, 0.46; for U9A A23U, 0.337.
Consider G8C G27A, for which the self-cleavage was found to be 0.787.
Take G8C G27C: the self-cleavage was determined as 0.63.
Then G8C G27U, with 0.519; and G8U U24G, with 1.11.
In the case of G8U U24C, the self-cleavage turned out to be 0.829.
As for G8U U24A, the self-cleavage amounted to 1.24.
For G8U G10A, the self-cleavage amounted to 1.47.
For G8U G10U the value was 1.04; for G8U G10C, 1.07.
G8A G35U: the self-cleavage was determined as 0.588.
For G8A G35A the value was 0.939; for G8A G35C, 0.543; for G8U A26G, 0.351.
On to G8U A26U, for which the self-cleavage was 0.935.
Then G8U A26C, with 0.596; and G8A U13G, with 1.24; and G8A U13C, with 1.2.
On to G8A U13A, for which the self-cleavage was 1.04.
Consider G8C U32C, for which the self-cleavage stood at 1.46.
Then G8C U32G, with 1.23; and G8C U32A, with 1.28.
G8A C11U: the self-cleavage came to 0.744.
For G8C A42G the value was 0.311; for G8C A42C, 0.363; for G8C A42U, 0.266.
For U9A A26C the value was 0.532; for U9A A26G, 0.368; for U9A A26U, 0.865.
For G8C A23U the value was 0.328; for G8C A23G, 0.376.
For G8C A23C, the self-cleavage was determined as 0.45.
For G8A G22C the value was 0.273.
With G8A G22A, the self-cleavage came to 0.403.
Turning to G8A G22U, the self-cleavage was determined as 0.384.
For G8A G31C the value was 0.889; for G8A G31U, 1.14.
For G8A G31A the value was 0.849; for G8U C16U, 1.27.
For G8U C16A the value was 0.908.
Consider G8U C16G, for which the self-cleavage was found to be 0.731.
Then G8A C38G, with 0.708; and G8A C38A, with 0.56.
Turning to G8A C38U, the self-cleavage stood at 0.926.
Take G8C U9A: the self-cleavage turned out to be 0.907.
For G8C U9C the value was 1.05.
Then G8C U9G, with 0.771; and G8U A34G, with 0.927.
